# B1: SSAP_260: SEQ ID NO: 429; Clostridium cochlearium (protein, listed as Clostridium cochlearium)
# chain: ATNESLKNQLATKKETGIGSAGNTIKSLINSPVIKKRFEEVLDKRAPQYMSSIVNLVNSDTNLKKCDQMSVIASCMVAATMDLPVDKNLGYAWIVPYGNKAQFQMGYKGYVQLALRTGQYKSINVIEVHEGELEEWNPLTEELKIDFSKKESDAVIGYAGYFELLNGFKKSTYWTKEQITKHKNKFSKSDFGWKKDFDAMAKKTVLRNMLSKWGILSIEMQNAYTADHGVIKNEIMETGEVKENVEYIEADFESYEGTSIEEGGSNE
# B2: SSAP_261: SEQ ID NO: 430; Peptoniphilus grossensis (protein, listed as Peptoniphilus grossensis)
# chain: TNIQKQENRALSPVNQMKNLLKNQGMQNLFADALKENKDRFLASIIDLYNGDTSLQDCNPKEVVMEALKAATLNLPINKNLGYAYIVPYNSKGTTRPQFQIGYKGYIQMAQRSGQYKALNAGILYEGMEVKRDFLRGTFEIIGEPKSDKVMGYFAYFQLLNGYEKAIYMTKDEVTEHAERYSQSYGSKYSPWKKQFDEMGQKTVIKKLLSKYGVLTTEFQDAVKEEEDREVLRATENNAMLEMTNPDEEEETIEVNPETGEIIEDDVKAPF
# B3: SSAP_255: SEQ ID NO: 424; Bacteroides eggerthii (protein, listed as Bacteroides eggerthii)
# chain: GTVTTVPQLKSMLANENVKSRFKEILGKKAPGFISSIVAVANSNTLLQKAEPQSIMNAAVIAATLDLPINPNLGFAYIIPYGNQASFQIGYKGMTQLAMRSGQYKTINVTEVYEGEIKSENRFTGEYTFGERKSDKIVGYMAYFSLTNGFEKYMYMSREECEKHGKKFSQTYKRGGGLWATDFDSMSKKTVLKMLISKYGILSIDMQRAQTFDQAVVKDDLVEKNIDEAEVSYEDNPTNADVRRNAMKEALEEAEVVDETTGEIFNQPAQ
# B4: SSAP_78: SEQ ID NO: 247 (protein)
# chain: RTDGTKEAGAAATAPTEGKAPAKAHKPADTIGAMIEKLKPQIERALPKHVTPDRMARMALTAIRNNPKLGQAEAVSLMGSIIQASQLGLEPNTPLGQCYIIPYNSKNGMQAQFQMGYKGIVDLAHRSGQYRQLTAHPVDEADEFRYSYGLNPDLVHVPAEKPSGKITHYYAVYHLTNGGFDFRVWSREKVEAHAKQYSKSFSSGPWQTNFDQMACKTVMIDLLRYAPKSVEIAKATSADNRTHTINPEDPDLNIDTIDGDFELEGEER
# B5: SSAP_230: SEQ ID NO: 399; Leuconostoc pseudomesenteroides (protein)
# chain: ANEITLAKQLSSDKVVEQFAATAGESAKSFAKEVALTISGNPALQHAKLGTVIVEATKASALGLSLLPTVGEAYLVPYKGDAQFQLGYKGIVQLAMRSGQMKSFGAESVYEGENPKWDKYNQELVTDGEETGKIIGYYAFFTLVNGFKMAAYWPKEKVEAHRDRFSKSKKGPWSTDFDAMAKKTVLKSILQYAPKSSEMKRALAEDTQAEYVQAGIQDVTPEPANIEAPIETANAPEINAQEESLFGELSDVDKETAPNPFAQNLGGDN
# modifications: Leuconostoc pseudomesenteroides
# B6: SSAP_63: SEQ ID NO: 232 (protein)
# chain: SELQQAAQGQADAGPVQVIYSHAKEIQNVLAKGTDMDRWLQMARLAVMRDPNLVNAAKRDPGSLMQAMLDCAEKGHIPGTEDYYLVPRKGGIQGMESWKGIAKRIMRSGRYQSIVAEVVYEGEDFDFNPNTMDRPVHQIKYMARTSGQPVLSYAYAVDHEGKPSTIAVADPRYIAKVKANSKGTVWADWDEAMYKKTAVKMLVDYVDTSSTDRRGVSTVQVDGPVGTFIDGVLEIEGGDQ
# B7: SSAP_311: SEQ ID NO: 480; Paenibacillus graminis (protein, listed as Paenibacillus graminis)
# chain: TVAIETQVQETLDRILDSKHDALPSDFKKKRFSENCKVYVAEEKDLHKYTIDDIVANLFKGAVLGLDFLAKECHLITGGVDLKFQTDYKGEMKLTKKYSVRPMLDVYAKNVREGDIFREQIIEGRPAIHFDPLPFNASKIIGSFAIALFQDGGMVYESIPAGEIEEIRKNYGKSLGDAWEKSQGEMYKRTVLRRLCKTIETDFDAEQRLIYEMGGAFEFTKQPTRSRQQSPFNPPEESEVIQNDRAAETDQG
# B8: SSAP_292: SEQ ID NO: 461; Paenibacillus rhizosphaerae (protein, listed as Paenibacillus rhizosphaerae)
# chain: SSKLVEINSKLDSFLDAQHKAMPKGFNKTRFLQNSMSVLRDIEGLEQCDPKSVALVMLKGAFLGLDFFNKECYPVVYAGKVEFQTDYKGEVKLVKKYSTKPVREIYAKLVRQGDDFSEEIVAGSQTINFKPLPFNNGEIVGAFAVVNYVDGTMQYDTMSTEEIEKIKVNFSRKSKKTNEYSKAWVVTPGEMYKKTVLRRLCKTIDLDFDTIEQAQAFEDAADMDFNQDSKPQQQSPLNPMVIDVEYEEVKEEQADAAEQE
# B9: SSAP_7: SEQ ID NO: 176 (protein)
# chain: STNDELKNKLANKQNGGQVASAQSLGLKGLLEAPTMRKKFESVLDKKAPQFLTSLLNLYNGDDYLQKTDPMTVVTSAMVAATLDLPIDKNLGYAWIVPYKGRAQFQLGYKGYIQLALRTGQYKSINVIEVRDGELLKWNRLTEEIELDLDNNTSEKVIGYCGYFQLINGFEKTVYWTRKEIEAHKKKFSKSDFGWKKDYDAMAKKTVLRNMLSKWGILSIDMQTAVTEDEAEPRERKDVTEDESIPDIIDAPITPSDTLEAGSEVQGSMI
# Test system: gene editing with Cas9 and dCas9
# Experiment: Screen of 322 new SSAP proteins, activity across all experiments (Cas9 and dCas9, Table 5)
# Type: cell-based
# Parameters: scale not given here
# Settings: not given
# Procedure, shortened: (§1)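 The 322 SSAP proteins were found in sequence data and then synthesized. Each was screened for gene editing activity when paired with Cas9 and with dCas9.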
row,Molecule,Activity across all experiments
1,B1,−5.739
2,B2,−4.137
3,B3,−3.873
4,B4,−4.307
5,B5,−3.700
6,B6,−3.427
7,B7,−6.749
8,B8,−6.169
9,B9,−7.537

# Test system: gene editing with Cas9
# Experiment: Screen of 322 new SSAP proteins, gene editing activity with Cas9 (Table 5)
# Type: cell-based
# Parameters: Cas9 with SSAP activity: scale not given here
# Settings: not given
# Procedure, shortened: as §1
row,Molecule,Cas9 with SSAP activity
1,B1,−3.745
2,B2,−0.535
3,B3,−0.273
4,B4,−0.849
5,B5,0.548
6,B6,0.570
7,B7,−6.123
8,B8,−4.432
9,B9,−7.628

# Same assay, conditions: normalized
row,Molecule,Cas9 with SSAP activity (normalized)
1,B1,−0.581
2,B2,−0.174
3,B3,−0.044
4,B4,−0.295
5,B5,0.321
6,B6,2.381
7,B7,−0.874
8,B8,−0.752
9,B9,−1.701

# Test system: gene editing with dCas9
# Experiment: Screen of 322 new SSAP proteins, gene editing activity with dCas9 (Table 5)
# Type: cell-based
# Parameters: dCas9 with SSAP activity: scale not given here
# Settings: not given
# Procedure, shortened: as §1
row,Molecule,dCas9 with SSAP activity
1,B1,−7.734
2,B2,−7.740
3,B3,−7.473
4,B4,−7.766
5,B5,−7.949
6,B6,−7.424
7,B7,−7.375
8,B8,−7.905
9,B9,−7.447

# Same assay, conditions: normalized
row,Molecule,dCas9 with SSAP activity (normalized)
1,B1,−1.301
2,B2,−1.199
3,B4,−2.216
4,B5,−1.164
5,B6,−1.335
6,B7,−1.526
7,B8,−1.546
8,B9,−1.443

# Source: patent US20250034594A1, “RNA-GUIDED GENOME RECOMBINEERING AT KILOBASE SCALE” (THE BOARD OF TRUSTEES OF THE LELAND STANFORD JUNIOR …, priority 2021, published 2025)
